Laboratory results from patent publication US10239925B2, “Peptides and combination of peptides for use in immunotherapy against ovarian cancer and other cancers” (IMMATICS BIOTECHNOLOGIES GMBH, priority 2015, dated 2019).

biological target: HLA-A*02:01 (Homo sapiens, UniProt P04439, D140Y/D185E/D98H/E176V/E277Q/G131W/G231S/I119V/I121R/I166T/I218V/L300P/L318F/N151K/N90K/P208A/P217A/Q86G/Q94H/R138H/R169H/T345S); test: MHC binding assay (UV-ligand exchange, anti-β2m ELISA, peptide exchange yield); settings: binding to HLA-A*02:01
In short: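 Peptide-MHC complexes formed by UV-ligand exchange, cleaving a UV-sensitive placeholder peptide in favour of the test peptide. Exchange yield measured by ELISA: monomers diluted 100-fold onto streptavidin-coated plates, 1 h 37 °C, detected with 2 ug/ml HRP anti-β2m and TMB, absorbance at 450 nm.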

Peptide exchange (MHC class I binding score, peptide exchange yield)	Substance
“+++” (>50 = +++)	296 (FMEGAIIYV; listed as Homo sapiens) [compound 296]
“+++” (>50 = +++)	297 (VLADIELAQA; listed as Homo sapiens) [compound 297]
“+++” (>50 = +++)	298 (VMITKLVEV; listed as Homo sapiens) [compound 298]
“+++” (>50 = +++)	299 (YLLETSGNL; listed as Homo sapiens) [compound 299]
“+++” (>50 = +++)	300 (ALLGQTFSL; listed as Homo sapiens) [compound 300]
“+++” (>50 = +++)	301 (FLVEDLVDSL; listed as Homo sapiens) [compound 301]
“+++” (>50 = +++)	302 (ALLQEGEVYSA; listed as Homo sapiens) [compound 302]
“++++” (>75% = ++++)	303 (AILPQLFMV; listed as Homo sapiens) [compound 303]
“+++” (>50 = +++)	304 (MTLGQIYYL; listed as Homo sapiens) [compound 304]
“++++” (>75% = ++++)	305 (SIANFSEFYV; listed as Homo sapiens) [compound 305]
“+++” (>50 = +++)	306 (ALVNVQIPL; listed as Homo sapiens) [compound 306]
“+++” (>50 = +++)	307 (ALPVSLPQI; listed as Homo sapiens) [compound 307]
“+++” (>50 = +++)	308 (SQYSGQLHEV; listed as Homo sapiens) [compound 308]
“+++” (>50 = +++)	309 (GLFDGVPTTA; listed as Homo sapiens) [compound 309]
“++++” (>75% = ++++)	310 (FLVDTPLARA; listed as Homo sapiens) [compound 310]
“+++” (>50 = +++)	311 (RLYTGMHTV; listed as Homo sapiens) [compound 311]
“+++” (>50 = +++)	312 (IISDLTIAL; listed as Homo sapiens) [compound 312]
“+++” (>50 = +++)	313 (VLFDDELLMV; listed as Homo sapiens) [compound 313]
“+++” (>50 = +++)	314 (ALIAEGIALV; listed as Homo sapiens) [compound 314]
“+++” (>50 = +++)	315 (YLQDVVEQA; listed as Homo sapiens) [compound 315]
“+++” (>50 = +++)	316 (ILLERLWYV; listed as Homo sapiens) [compound 316]
“+++” (>50 = +++)	317 (SLAALVVHV; listed as Homo sapiens) [compound 317]

Peptide exchange (MHC class I binding score, peptide exchange yield)	Substance
“++” (>20% = ++)	318 (GLINTGVLSV; listed as Homo sapiens) [compound 318]
“++++” (>75% = ++++)	320 (KMFEFVEPLL; listed as Homo sapiens) [compound 320]
“++++” (>75% = ++++)	321 (GLFEDVTQPGILL; listed as Homo sapiens) [compound 321]
“+++” (>50 = +++)	322 (TLMTSLPAL; listed as Homo sapiens) [compound 322]
“+++” (>50 = +++)	324 (FLYDEIEAEV; listed as Homo sapiens) [compound 324]
“+++” (>50 = +++)	325 (FIMPATVADATAV; listed as Homo sapiens) [compound 325]
“+++” (>50 = +++)	326 (FLPEALDFV; listed as Homo sapiens) [compound 326]
“+++” (>50 = +++)	327 (GLAPFTEGISFV; listed as Homo sapiens) [compound 327]
“+++” (>50 = +++)	328 (ALNDQVFEI; listed as Homo sapiens) [compound 328]
“++++” (>75% = ++++)	329 (FLVTLNNVEV; listed as Homo sapiens) [compound 329]
“+++” (>50 = +++)	330 (QLALKVEGV; listed as Homo sapiens) [compound 330]
“+++” (>50 = +++)	331 (KVDTVWVNV; listed as Homo sapiens) [compound 331]
“+++” (>50 = +++)	332 (YLISELEAA; listed as Homo sapiens) [compound 332]
“++” (>20% = ++)	333 (FLPDANSSV; listed as Homo sapiens) [compound 333]
“+++” (>50 = +++)	334 (TLTKVLVAL; listed as Homo sapiens) [compound 334]
“+++” (>50 = +++)	335 (YSLSSVVTV; listed as Homo sapiens) [compound 335]
“+++” (>50 = +++)	336 (ILLTAIVQV; listed as Homo sapiens) [compound 336]
“++++” (>75% = ++++)	337 (HLLSELEAAPYL; listed as Homo sapiens) [compound 337]
“++++” (>75% = ++++)	339 (GLWEIENNPTVKA; listed as Homo sapiens) [compound 339]
“++++” (>75% = ++++)	340 (ALLSMTFPL; listed as Homo sapiens) [compound 340]
“+++” (>50 = +++)	341 (SQIALNEKLVNL; listed as Homo sapiens) [compound 341]
“+++” (>50 = +++)	342 (HIYDKVMTV; listed as Homo sapiens) [compound 342]

Peptide exchange (MHC class I binding score, peptide exchange yield)	Substance
“+++” (>50 = +++)	343 (SLLEVNEESTV; listed as Homo sapiens) [compound 343]
“+++” (>50 = +++)	344 (YLQDQHLLLTV; listed as Homo sapiens) [compound 344]
“+++” (>50 = +++)	345 (VIWKALIHL; listed as Homo sapiens) [compound 345]
“+++” (>50 = +++)	346 (LLDSKVPSV; listed as Homo sapiens) [compound 346]
“++++” (>75% = ++++)	347 (SLFKHDPAAWEA; listed as Homo sapiens) [compound 347]
“++++” (>75% = ++++)	348 (ILLDVKTRL; listed as Homo sapiens) [compound 348]
“++++” (>75% = ++++)	349 (SLTEYLQNV; listed as Homo sapiens) [compound 349]
“+++” (>50 = +++)	350 (ALLDVTHSELTV; listed as Homo sapiens) [compound 350]
“+++” (>50 = +++)	351 (SLIPNLRNV; listed as Homo sapiens) [compound 351]
“+++” (>50 = +++)	352 (SLLELLHIYV; listed as Homo sapiens) [compound 352]
“++” (>20% = ++)	353 (YLFEMDSSL; listed as Homo sapiens) [compound 353]
“++” (>20% = ++)	354 (LILEGVDTV; listed as Homo sapiens) [compound 354]
“++” (>20% = ++)	355 (SIQQSIERLLV; listed as Homo sapiens) [compound 355]
“+++” (>50 = +++)	356 (KLLGKLPEL; listed as Homo sapiens) [compound 356]
“+++” (>50 = +++)	357 (SMHDLVLQV; listed as Homo sapiens) [compound 357]
“++++” (>75% = ++++)	358 (ALDEYTSEL; listed as Homo sapiens) [compound 358]
“+++” (>50 = +++)	359 (YLLPESVDL; listed as Homo sapiens) [compound 359]
“+++” (>50 = +++)	361 (ALYELEGTTV; listed as Homo sapiens) [compound 361]
“+++” (>50 = +++)	362 (TLYGLSVLL; listed as Homo sapiens) [compound 362]
“++” (>20% = ++)	363 (KVLDVSDLESV; listed as Homo sapiens) [compound 363]
“+++” (>50 = +++)	364 (LLQNEQFEL; listed as Homo sapiens) [compound 364]
“+++” (>50 = +++)	365 (YVIDQGETDVYV; listed as Homo sapiens) [compound 365]
